{"source": "patent US20230340152A1", "about": "(published 2023)", "key": {"[1]": {"target": "T1, HDX_E2 CD73 chimera (human; chicken, UniProt P21589 27-553)", "T1 construct": "also called KO_182-187", "T1 chain": "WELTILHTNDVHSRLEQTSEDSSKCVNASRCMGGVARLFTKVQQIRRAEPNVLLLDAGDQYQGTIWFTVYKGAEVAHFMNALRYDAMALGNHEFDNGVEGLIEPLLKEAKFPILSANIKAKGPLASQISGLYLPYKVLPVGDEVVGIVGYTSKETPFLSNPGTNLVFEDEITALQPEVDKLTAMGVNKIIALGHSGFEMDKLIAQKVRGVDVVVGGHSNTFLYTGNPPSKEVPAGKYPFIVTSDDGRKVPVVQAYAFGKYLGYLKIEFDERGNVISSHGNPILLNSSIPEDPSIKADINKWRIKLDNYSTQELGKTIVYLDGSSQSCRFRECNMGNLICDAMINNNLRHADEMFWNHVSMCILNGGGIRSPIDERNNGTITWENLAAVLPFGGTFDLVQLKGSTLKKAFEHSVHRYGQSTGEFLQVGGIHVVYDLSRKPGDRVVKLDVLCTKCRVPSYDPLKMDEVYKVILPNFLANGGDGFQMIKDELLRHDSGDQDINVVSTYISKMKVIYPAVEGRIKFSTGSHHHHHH", "test": "SPR (ProteOn), CD73 variant immobilized; 2:1 fit", "method": "(§1) Binding of MEDI9447 to wild-type and mutant CD73 proteins was measured by surface plasmon resonance (SPR) using a ProteOn instrument (BioRad). CD73 crude cell supernatant protein samples were diluted to 3 µg/ml in PBS, 0.005% Tween-20, pH 7.4 (BioRad) and immobilized to ~400 RU on a HTG tris-NTA sensor chip (BioRad) pre-activated with 10 mM NiSO₄, 10 mM MES, pH 6.0 (BioRad). An equivalently diluted crude cell supernatant sample from non-transfected cells was included as a reference channel control. Sensorgrams were recorded by flowing two-fold dilutions of MEDI9447 prepared in PBS, 0.005% Tween-20, pH 7.4, ranging from 5 nM to 0.31 nM. […] Antibody binding was measured at a flow rate of 100 µL/min with a 3 min association phase and 20 min dissociation phase. The sensor chip surface was regenerated between each run by an 800 s injection of 300 mM EDTA, pH 8.5 (BioRad) at a flow rate of 30 µL/min. Binding kinetics were analyzed using the ProteOn data analysis software. Double referencing was performed and, unless noted otherwise, a 1:1 Langmuir binding model was utilized to fit the data. Some CD73 variants containing mutations within the amino acid region 171-188 fit poorly to a 1:1 model (i.e., Chi² values >10% of Rmax). Where noted, these variants were fit with a heterogenous antigen (2:1) model. […] Due to the assay format (antigen immobilized) and the dimeric state of CD73, KD values may be exaggerated due to avidity effects. However, it is not anticipated that this impacts ranking of MEDI9447 binding to the different CD73 variants."}, "[2]": {"target": "T2, HDX_E1+E2 CD73 chimera (human; chicken, UniProt P21589 27-553)", "T2 chain": "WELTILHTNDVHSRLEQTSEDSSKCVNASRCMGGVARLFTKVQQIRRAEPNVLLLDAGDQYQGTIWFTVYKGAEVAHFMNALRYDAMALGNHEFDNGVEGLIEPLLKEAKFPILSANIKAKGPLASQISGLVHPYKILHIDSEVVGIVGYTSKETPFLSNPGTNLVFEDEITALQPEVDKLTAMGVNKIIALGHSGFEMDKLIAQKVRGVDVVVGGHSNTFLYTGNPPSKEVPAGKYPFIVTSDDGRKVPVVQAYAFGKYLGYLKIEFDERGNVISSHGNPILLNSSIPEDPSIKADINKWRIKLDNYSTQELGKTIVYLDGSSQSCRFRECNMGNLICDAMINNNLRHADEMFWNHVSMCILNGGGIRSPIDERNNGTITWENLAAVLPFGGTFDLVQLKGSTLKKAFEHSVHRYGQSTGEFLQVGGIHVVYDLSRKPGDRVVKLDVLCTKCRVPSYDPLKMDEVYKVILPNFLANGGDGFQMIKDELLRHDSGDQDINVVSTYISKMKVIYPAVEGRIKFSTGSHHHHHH", "test": "SPR (ProteOn), CD73 variant immobilized; 2:1 fit", "method": "as §1"}, "[3]": {"target": "T3, Cynomolgus CD73 on MK-1 cells (cynomolgus, UniProt A0A2K5V5U7 27-549)", "T3 construct": "whole, on cells; also called MK-1 (cyno)", "T3 sequence": "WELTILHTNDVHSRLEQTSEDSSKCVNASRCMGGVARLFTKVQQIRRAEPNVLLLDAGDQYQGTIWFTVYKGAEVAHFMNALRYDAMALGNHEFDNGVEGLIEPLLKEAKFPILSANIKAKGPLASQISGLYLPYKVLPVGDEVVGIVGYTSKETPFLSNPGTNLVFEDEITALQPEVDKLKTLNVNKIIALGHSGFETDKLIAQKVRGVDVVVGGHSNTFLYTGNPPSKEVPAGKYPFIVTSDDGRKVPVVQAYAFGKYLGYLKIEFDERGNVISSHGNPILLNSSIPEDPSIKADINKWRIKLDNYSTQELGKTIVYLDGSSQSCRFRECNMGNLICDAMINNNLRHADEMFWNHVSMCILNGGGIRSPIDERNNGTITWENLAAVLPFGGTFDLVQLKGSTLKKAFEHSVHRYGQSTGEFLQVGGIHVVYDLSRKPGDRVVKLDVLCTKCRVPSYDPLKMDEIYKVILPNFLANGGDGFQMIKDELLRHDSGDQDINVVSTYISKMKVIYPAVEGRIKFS", "test": "flow cytometry, MK-1 cells", "method": "Binding of MEDI9447 to native CD73 expressed on human, murine, and cynomolgus monkey cell lines was characterized by flow cytometry. The cells were incubated with various concentrations of MEDI9447 and antibody binding was monitored with and fluorophore-labeled anti-human Fc antibody. A plot of the median fluorescence intensity as a function of the MEDI9447 concentration was fitted nonlinearly using a one-site binding isotherm model to calculate the equilibrium dissociation constant."}}}
{"binder": "MEDI9447 (antibody, human IgG1, lambda, V domains shown, Human IgG1-TM (L234F, L235E, P331S), lambda light chain; also called clone 10.3 antibody; 73combo3) VH: EVQLLESGGGLVQPGGSLRLSCAASGFTFSSYAYSWVRQAPGKGLEWVSAISGSGGRTYYADSVKGRFTISRDNSKNTLYLQMNSLRAEDTAVYYCARLGYGRVDEWGRGTLVTVSS VL: QSVLTQPPSASGTPGQRVTISCSGSLSNIGRNPVNWYQQLPGTAPKLLIYLDNLRLSGVPDRFSGSKSGTSASLAISGLQSEDEADYYCATWDDSHPGWTFGGGTKLTVLG", "values": [{"measurement": "Kd", "setting": "[1]", "result": 2.83, "unit": "nM"}, {"measurement": "koff", "setting": "[1]", "result": 0.0162, "unit": "s⁻¹"}, {"measurement": "kon", "setting": "[1]", "result": "5.73e+06", "unit": "M⁻¹ s⁻¹"}, {"measurement": "Kd", "setting": "[2]", "result": 4.43, "unit": "nM"}, {"measurement": "koff", "setting": "[2]", "result": 0.0211, "unit": "s⁻¹"}, {"measurement": "kon", "setting": "[2]", "result": "4.76e+06", "unit": "M⁻¹ s⁻¹"}, {"measurement": "Kd", "setting": "[3]", "result": 0.084, "unit": "nM"}]}
